According to paper PMC5376981 (Scientific Reports, 2014):

How the values were obtained:
3D7-DBL2X = 3D7-DBL2X (Plasmodium falciparum 3D7, UniProt Q8I639, strain); experiment: ELISA
FCR3-DBL3X = FCR3-DBL3X (Plasmodium falciparum FCR3, UniProt Q6UDW7, strain); experiment: ELISA
[1] = molecular target: full-length VAR2CSA recombinant protein (3D7-DBL1X-6ε) (Plasmodium falciparum 3D7, UniProt Q8I639, strain); experiment: SPR
[2] = molecular target: native VAR2CSA on FCR3-CSA infected erythrocytes (Plasmodium falciparum FCR3, UniProt Q6UDW7, strain); experiment: flow cytometry on cells
FCR3-DBL6ε = FCR3-DBL6ε (Plasmodium falciparum FCR3, UniProt Q6UDW7, strain); experiment: ELISA
3D7-DBL1X-3X = 3D7-DBL1X-3X (Plasmodium falciparum 3D7, UniProt Q8I639, strain); experiment: ELISA
3D7-DBL1X = 3D7-DBL1X (Plasmodium falciparum 3D7, UniProt Q8I639, strain); experiment: ELISA
[3] = molecular target: native VAR2CSA on NF54-CSA infected erythrocytes (Plasmodium falciparum NF54 (parent of …, UniProt Q8I639, strain)); experiment: flow cytometry on cells

B1: VHH867 (VHH)
VHH: QVQLQESGGGLVQAGGSLRLSCAASGFTLDDYGIGWFRQAPGKEREGVSFISSSDGTTDYADSVKGRFTISSDNAKNTVYLQMNSLKPEDTAVYYCAAVEQRVPFLSVLHEAIYDYWGQGTQVTVSS
For B1, the binding result (3D7-DBL2X) was “no binding (tested: 0.3 µg/ml)”, the binding result (FCR3-DBL3X) was “no binding (tested: 0.3 µg/ml)” and the Kd [1] was 300 nM. For the same binder, the koff [1] was 0.0027 s⁻¹, the kon [1] was 8690 M⁻¹ s⁻¹ and the binding result [2] was “binds”.

B2: VHH891 (VHH)
VHH: QVQLQESGGGLVQTGDSLRLSCAASGRTFSSYAMGWFRQAPGKEREFVAAITWGDGSADYADSVKGRFTISRDNAENTVYLQMNSLKPEDTAVYYCAAETVGAPIYTLGYSEAYDYWGQGTQVTVSS
B2 was tested, and the binding result (3D7-DBL2X) was “no binding (tested: 0.3 µg/ml)”, the binding result (FCR3-DBL3X) was “no binding (tested: 0.3 µg/ml)” and the Kd [1] was 700 nM. For the same binder, the koff [1] was 0.0014 s⁻¹, the kon [1] was 2050 M⁻¹ s⁻¹ and the binding result [2] was “binds”.

B3: VHH871 (VHH)
VHH: QVQLQESGGGLVQAGGSLRLSCAASGSIFSIHAMGWYRQAPGKQRELVAAITSGGSTNYGDSVKGRFTISEDNAKNTVYLQMNGLKPEDTAVYYCAADNDGLGYVYWGQGTQVTVSS
B3 was tested, and the binding result (3D7-DBL2X) was “no binding (tested: 0.3 µg/ml)”, the binding result (FCR3-DBL3X) was “no binding (tested: 0.3 µg/ml)” and the Kd [1] was 200 nM. For the same binder, the koff [1] was 3.9e-05 s⁻¹, the kon [1] was 216 M⁻¹ s⁻¹ and the binding result [2] was “binds”.

B4: VHH859 (VHH)
VHH: QVQLQESGGGLVQAGGSLRLSCAASGRTFSSYAMGWFRQAPGKEREFVAAISWNGSSTYYADSVKGRFTISRDNAKNTVYLQMNSLKPEDTAVYYCAANDLLVPELLMSRVEVYDYWGQGTQVTVSS
With B4 the binding result (3D7-DBL2X) was “no binding (tested: 0.3 µg/ml)”, the binding result (FCR3-DBL3X) was “no binding (tested: 0.3 µg/ml)” and the Kd [1] was 300 nM. The koff [1] was 0.0032 s⁻¹, the kon [1] was 12000 M⁻¹ s⁻¹ and the binding result [2] was “binds”.

B5: VHH880 (VHH)
VHH: QVQLQESGGGLVQAGGSLRLSCAASGRTFSDYAMGWFRQAPGKDREFVAAISWSGDRTYYADSVKGRFTISRDNAENTVYLQMNSLKPEDTAVYHCAANDLMVPELLMPRVESYDYWGQGTQVTVSS
B5 was tested, and the binding result (3D7-DBL2X) was “no binding (tested: 0.3 µg/ml)”, the binding result (FCR3-DBL3X) was “no binding (tested: 0.3 µg/ml)” and the Kd [1] was 100 nM. For the same binder, the koff [1] was 0.0018 s⁻¹, the kon [1] was 15000 M⁻¹ s⁻¹ and the binding result [2] was “binds”.

B6: VHH883 (VHH)
VHH: QVQLQESGGGLVQAGGSLRLSCAASGRTFSSYAMGWFRQAPGKEREFVAAISWSGDTTYYADSVKGRFTISRDNAKNTVSLQMNSLKPEDTAVYYCAANDLMVPALLMPRLESYDYWGQGTQVTVSS
For B6, the binding result (3D7-DBL2X) was “no binding (tested: 0.3 µg/ml)”, the binding result (FCR3-DBL3X) was “no binding (tested: 0.3 µg/ml)” and the Kd [1] was 10 nM. For the same binder, the koff [1] was 0.0017 s⁻¹, the kon [1] was 170000 M⁻¹ s⁻¹ and the binding result [2] was “binds”.

B7: VHH879 (VHH)
VHH: QVQLQESGGGLVQAGGSLRLSCAASGRTFSDYAMGWFRQAPGKDREFVAAISWSGDRTYYADSVKGRFTISRDNAKNTVYLQMNSLKPEDTAVYHCAANDLMVPELLMPRVESYDYWGQGTQVTVSS
B7 was tested, and the binding result (3D7-DBL2X) was “no binding (tested: 0.3 µg/ml)”, the binding result (FCR3-DBL3X) was “no binding (tested: 0.3 µg/ml)” and the Kd [1] was 19 nM. The koff [1] was 0.0015 s⁻¹, the kon [1] was 79000 M⁻¹ s⁻¹ and the binding result [2] was “binds”.

B8: VHH863 (VHH)
VHH: QVQLQESGGGLVQTGGSLRLSCAASGRTFMDYVMGWFRQAPGKEREFVASISWTDSTRYTDSVKGRFTASRDDAEATVYLQMNNLQFEDTAVYYCARGAGRGHSVSAGDYVYWGQGTQVTVSS
In the case of B8, the binding result (FCR3-DBL6ε) is reported as “no binding (tested: 0.3 µg/ml)”, the Kd [1] is reported as 46 nM and the koff [1] is reported as 0.0014 s⁻¹. The kon [1] was 31000 M⁻¹ s⁻¹ and the binding result [2] was “no binding (tested: 100 µg/ml)”.

B9: VHH864 (VHH)
VHH: QVQLQESGGGLVQTGGSLRLSCAASGRTFMDYVMGWFRQAPGKEREFVASISWTDSTRYTDSVKGRFTASRDDAKATVYLQMNNLQFEDTAVYYCARGAGRGHSVSAGDYVYWGQGTQVTVSS
In the case of B9, the binding result (FCR3-DBL6ε) is reported as “no binding (tested: 0.3 µg/ml)”, the Kd [1] is reported as 18 nM and the koff [1] is reported as 0.00063 s⁻¹. For the same binder, the kon [1] was 34000 M⁻¹ s⁻¹ and the binding result [2] was “no binding (tested: 100 µg/ml)”.

B10: VHH889 (VHH)
VHH: QVQLQESGGGLVQAGGSLRLSCAASGRSFSSYAMGWFRQAPGKEREFVATITWSGGSTYYADSVKGRFTISGDSAENTVYLQMNSLKPEDTAVYYCAADETSAPLYRAYEAQYDYWGQGTQVTVSS
B10 was tested, and the binding result (3D7-DBL2X) was “no binding (tested: 0.3 µg/ml)”, the binding result (FCR3-DBL3X) was “no binding (tested: 0.3 µg/ml)” and the Kd [1] was 700 nM. The koff [1] was 0.035 s⁻¹, the kon [1] was 54000 M⁻¹ s⁻¹ and the binding result [2] was “binds”.

B11: VHH893 (VHH)
VHH: QVQLQESGGGLVQAGGSLRLSCAASGFTFDDYAIGWFRQAPGKEREGVSCISSGDGGTYYADSVKGRFTISSDNAENTVALQMNSLKPEDTAVYYCAAVYGSCWDGLLYRTDSYEYDGWGQGTQVTVSS
B11 showed a Kd [1] of 27 nM, a koff [1] of 0.0017 s⁻¹ and a kon [1] of 60000 M⁻¹ s⁻¹. B11: no binding (tested: 100 µg/ml) [2].

B12: VHH895 (VHH)
VHH: QVQLQESGGGLVQAGGSLRVSCAASGRALSDYAMGWFRQTPGKEREFVAAISWNGGNTYYADSVKGRFTISRDNAENTVYLQMNSLKPEDTAVYYCAANDLAVPGLLMPRVETYDYWGQGTQVTVSS
In the case of B12, the Kd [1] is reported as 800 nM, the koff [1] is reported as 87.2 s⁻¹ and the kon [1] is reported as 1.1e+08 M⁻¹ s⁻¹. B12: binds [2].

B13: VHH860 (VHH)
VHH: QVQLQESGGGLVQAGGSLRLSCAASGRAFSDYAMGWFRQAPGKERDFVAAISWNGGNTYYSDSVKGRFTISRDNAENTVYLQMNSLKPEDTAVYYCAANDLAVPELLMPRVETYDYWGQGTQVTVSS
B13 was tested, and the binding result (3D7-DBL2X) was “no binding (tested: 0.3 µg/ml)”, the binding result (FCR3-DBL3X) was “no binding (tested: 0.3 µg/ml)” and the Kd [1] was 28 nM. For the same binder, the koff [1] was 0.0013 s⁻¹, the kon [1] was 46000 M⁻¹ s⁻¹ and the binding result [2] was “binds”.

B14: VHH897 (VHH)
VHH: QVQLQESGGGLVQAGGSLRISCAASGRTFSDYAMGWFRQAPGKEREFVAAISWNGDNTYYADSVKGRFTISRDNAKNTVYLQMNSLKPEDTAVYYCAANDLAVPGLLMPRVETYDYWGQGTQVTVSS
For B14, the Kd [1] was 43 nM, the koff [1] was 0.0013 s⁻¹ and the kon [1] was 31000 M⁻¹ s⁻¹. B14: binds [2].

B15: VHH874 (VHH)
VHH: QVQLQESGGGLVQAGGSLRLSCAASGRAFSDYAMGWFRQAPGKERDFVAAISWNGGNTYYSDSVKGRFTISRDNAKNTVYLQMNSLKPEDTAVYYCAANDLAVPELLMPRVETYDYWGQGTQVTVSS
B15: binds (3D7-DBL1X-3X); no binding (tested: 0.3 µg/ml) (3D7-DBL2X); binds (3D7-DBL1X). B15: no binding (tested: 0.3 µg/ml) (FCR3-DBL3X); binds [2]; binds [3].

B16: VHH884 (VHH)
VHH: QVQLQESGGGLVQAGGSLRLSCAASGRTFSNYAMGWFRQAPGKEREFVAAISWNGGSTYYADSAKGRFTISRDNAENTVYLQMNSLKPEDTAVYRCAANDLMVPELLMPRVETYDYWGQGTQVTVSS
For B16, the binding result (3D7-DBL2X) was “no binding (tested: 0.3 µg/ml)”, the binding result (FCR3-DBL3X) was “no binding (tested: 0.3 µg/ml)” and the Kd [1] was 400 nM. The koff [1] was 0.0036 s⁻¹, the kon [1] was 9860 M⁻¹ s⁻¹ and the binding result [2] was “binds”.

B17: VHH905 (VHH)
VHH: QVQLQESGGGLVQAGGSLRLSCAASGRTFSSYAMGWFRQAPGKEREFVAAISWNGGSTYYADSVKGRFTISRDNAENTGYLQMNSLKPEDTAVYYCAANDLMVPELLMPRVETYDYWGQGTQVTVSS
B17: binds (3D7-DBL1X-3X); binds (3D7-DBL1X); binds [2]. B17: binds [3].
